Test [1] has as its target Alexa647-labeled RhoGDI1 L56V (bovine, UniProt P19803 1-204, L56V, Alexa647 acceptor (site not stated)). Nature of the test: FRET.
Test [2] concerns the target Alexa647-labeled RhoGDI1 L56A (bovine, UniProt P19803 1-204, L56A, Alexa647 acceptor (site not stated)). Nature of the test: FRET.

B1: Cy3-labeled, prenylated Cdc42 (natural protein)
chain: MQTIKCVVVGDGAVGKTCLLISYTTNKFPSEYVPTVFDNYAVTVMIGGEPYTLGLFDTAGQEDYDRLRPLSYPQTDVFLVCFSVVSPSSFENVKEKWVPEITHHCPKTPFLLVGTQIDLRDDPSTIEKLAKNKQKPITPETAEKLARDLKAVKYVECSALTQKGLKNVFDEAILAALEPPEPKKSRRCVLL
modifications: prenylated (residue not stated); Cy3 donor (site not stated)
In the case of B1, the koff in test [1] worked out at 0.003 s⁻¹; in test [2], 0.08 s⁻¹.
